# Assays:
# FGFR3 = FGFR3 (UniProt P22607); test: phosphorylation enrichment, bacterial display (enrichment ratio); higher = better substrate or ligand; peptides without Tyr show the background
# Fes = Fes (UniProt P07332); test: as above
# c-Src = test: as above
# FGFR1 = FGFR1 (UniProt P11362); test: as above
# EPHB1 = EPHB1 (UniProt P54762); test: as above
# Jak2 = Jak2 (UniProt O60674); test: as above
# Fyn = Fyn (UniProt P06241); test: as above
# MERTK = MERTK (UniProt Q12866); test: as above
# Hck = Hck (UniProt P08631); test: as above
# c-Abl (mouse) = test: as above
# AncSZ = test: as above
# EPHB2 = EPHB2 (UniProt P29323); test: as above
# Fer (mouse) = test: as above
# Grb2 SH2 = Grb2 SH2 (UniProt P62993); test: SH2 binding enrichment of the phosphorylated peptide, bacterial display (enrichment ratio); higher = better substrate or ligand; peptides without Tyr show the background
# SHP2-C SH2 = test: as above
# c-Src SH2 = test: as above
# 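For SH2 binding enrichment of the phosphorylated peptide, bacterial display in this document: peptide library displayed on the E. coli surface as eCPX fusions, selected cells deep-sequenced, score is each peptide's frequency after selection divided by its frequency in the input.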
# 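For phosphorylation enrichment, bacterial display in this document: 11-residue human phosphosite peptides and single-mutation variants displayed on the E. coli surface, counted by deep sequencing, each peptide's frequency after selection divided by its frequency in the unselected input library; frequency after pTyr selection over input frequency; kinase dosed for 20-30% of maximal phosphorylation in three min.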
# Sequence of Jak2 (O60674 whole entry, looked up): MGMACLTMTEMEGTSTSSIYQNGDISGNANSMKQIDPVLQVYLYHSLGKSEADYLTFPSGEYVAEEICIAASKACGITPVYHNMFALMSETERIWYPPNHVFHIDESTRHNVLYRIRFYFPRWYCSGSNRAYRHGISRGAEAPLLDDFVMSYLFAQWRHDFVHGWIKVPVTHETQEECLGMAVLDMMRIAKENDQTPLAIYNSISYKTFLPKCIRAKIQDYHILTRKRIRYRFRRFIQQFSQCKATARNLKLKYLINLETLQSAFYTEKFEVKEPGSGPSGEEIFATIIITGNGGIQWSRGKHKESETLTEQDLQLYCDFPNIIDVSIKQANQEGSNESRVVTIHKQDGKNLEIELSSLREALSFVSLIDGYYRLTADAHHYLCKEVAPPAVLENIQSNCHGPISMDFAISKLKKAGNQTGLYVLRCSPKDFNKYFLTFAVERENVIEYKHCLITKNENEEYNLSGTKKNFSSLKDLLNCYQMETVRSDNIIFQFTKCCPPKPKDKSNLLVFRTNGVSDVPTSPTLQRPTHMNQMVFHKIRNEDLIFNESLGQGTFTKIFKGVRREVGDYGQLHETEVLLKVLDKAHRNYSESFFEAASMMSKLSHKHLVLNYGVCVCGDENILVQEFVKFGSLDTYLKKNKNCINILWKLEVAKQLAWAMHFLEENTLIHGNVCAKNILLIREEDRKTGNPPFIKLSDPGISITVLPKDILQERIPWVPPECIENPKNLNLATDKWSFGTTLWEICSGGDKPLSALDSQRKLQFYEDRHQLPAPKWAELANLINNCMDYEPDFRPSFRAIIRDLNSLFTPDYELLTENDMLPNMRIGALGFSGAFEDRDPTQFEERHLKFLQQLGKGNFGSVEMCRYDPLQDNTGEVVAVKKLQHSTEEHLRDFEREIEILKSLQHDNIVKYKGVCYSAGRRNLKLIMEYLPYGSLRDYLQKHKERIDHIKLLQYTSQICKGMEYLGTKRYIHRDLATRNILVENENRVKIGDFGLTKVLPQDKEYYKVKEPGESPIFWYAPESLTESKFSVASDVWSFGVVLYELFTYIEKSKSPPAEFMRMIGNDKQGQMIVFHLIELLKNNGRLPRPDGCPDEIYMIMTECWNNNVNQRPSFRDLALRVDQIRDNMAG
# Sequence of FGFR3 (P22607 whole entry, looked up): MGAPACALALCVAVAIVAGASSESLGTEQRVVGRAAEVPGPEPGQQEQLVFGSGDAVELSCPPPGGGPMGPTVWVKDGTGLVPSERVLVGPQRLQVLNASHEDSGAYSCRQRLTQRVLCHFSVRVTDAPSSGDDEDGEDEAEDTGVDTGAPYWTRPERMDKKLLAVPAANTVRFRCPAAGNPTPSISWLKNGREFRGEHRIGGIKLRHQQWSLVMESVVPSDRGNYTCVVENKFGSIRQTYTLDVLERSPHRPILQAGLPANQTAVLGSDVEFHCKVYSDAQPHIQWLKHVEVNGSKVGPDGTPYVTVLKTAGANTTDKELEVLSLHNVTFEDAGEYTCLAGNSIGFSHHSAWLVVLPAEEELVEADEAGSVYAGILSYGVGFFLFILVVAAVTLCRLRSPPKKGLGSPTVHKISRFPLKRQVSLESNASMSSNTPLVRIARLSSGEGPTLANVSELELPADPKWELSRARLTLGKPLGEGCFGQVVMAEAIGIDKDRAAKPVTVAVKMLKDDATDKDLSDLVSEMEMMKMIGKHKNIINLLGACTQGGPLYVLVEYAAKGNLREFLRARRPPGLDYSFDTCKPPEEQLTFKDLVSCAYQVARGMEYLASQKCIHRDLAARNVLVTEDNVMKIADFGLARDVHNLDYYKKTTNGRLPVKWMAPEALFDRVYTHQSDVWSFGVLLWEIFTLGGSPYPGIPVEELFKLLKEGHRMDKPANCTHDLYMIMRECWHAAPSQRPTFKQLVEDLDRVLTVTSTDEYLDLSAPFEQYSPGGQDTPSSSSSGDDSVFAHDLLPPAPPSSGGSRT
# Sequence of Hck (P08631 whole entry, looked up): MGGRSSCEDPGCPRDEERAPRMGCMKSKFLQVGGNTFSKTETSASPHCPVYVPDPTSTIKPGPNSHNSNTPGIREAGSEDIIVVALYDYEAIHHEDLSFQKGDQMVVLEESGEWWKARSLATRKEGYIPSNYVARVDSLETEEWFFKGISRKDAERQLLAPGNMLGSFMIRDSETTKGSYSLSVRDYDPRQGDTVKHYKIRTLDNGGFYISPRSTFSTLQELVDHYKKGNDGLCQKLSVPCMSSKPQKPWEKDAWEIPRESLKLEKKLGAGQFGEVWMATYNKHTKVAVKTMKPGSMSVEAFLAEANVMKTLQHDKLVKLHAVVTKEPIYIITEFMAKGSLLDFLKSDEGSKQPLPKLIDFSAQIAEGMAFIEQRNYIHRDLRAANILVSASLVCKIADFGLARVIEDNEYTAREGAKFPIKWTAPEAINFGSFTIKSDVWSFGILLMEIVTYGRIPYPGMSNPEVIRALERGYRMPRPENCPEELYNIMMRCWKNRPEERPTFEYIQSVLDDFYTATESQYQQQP
# Sequence of EPHB2 (P29323 whole entry, looked up): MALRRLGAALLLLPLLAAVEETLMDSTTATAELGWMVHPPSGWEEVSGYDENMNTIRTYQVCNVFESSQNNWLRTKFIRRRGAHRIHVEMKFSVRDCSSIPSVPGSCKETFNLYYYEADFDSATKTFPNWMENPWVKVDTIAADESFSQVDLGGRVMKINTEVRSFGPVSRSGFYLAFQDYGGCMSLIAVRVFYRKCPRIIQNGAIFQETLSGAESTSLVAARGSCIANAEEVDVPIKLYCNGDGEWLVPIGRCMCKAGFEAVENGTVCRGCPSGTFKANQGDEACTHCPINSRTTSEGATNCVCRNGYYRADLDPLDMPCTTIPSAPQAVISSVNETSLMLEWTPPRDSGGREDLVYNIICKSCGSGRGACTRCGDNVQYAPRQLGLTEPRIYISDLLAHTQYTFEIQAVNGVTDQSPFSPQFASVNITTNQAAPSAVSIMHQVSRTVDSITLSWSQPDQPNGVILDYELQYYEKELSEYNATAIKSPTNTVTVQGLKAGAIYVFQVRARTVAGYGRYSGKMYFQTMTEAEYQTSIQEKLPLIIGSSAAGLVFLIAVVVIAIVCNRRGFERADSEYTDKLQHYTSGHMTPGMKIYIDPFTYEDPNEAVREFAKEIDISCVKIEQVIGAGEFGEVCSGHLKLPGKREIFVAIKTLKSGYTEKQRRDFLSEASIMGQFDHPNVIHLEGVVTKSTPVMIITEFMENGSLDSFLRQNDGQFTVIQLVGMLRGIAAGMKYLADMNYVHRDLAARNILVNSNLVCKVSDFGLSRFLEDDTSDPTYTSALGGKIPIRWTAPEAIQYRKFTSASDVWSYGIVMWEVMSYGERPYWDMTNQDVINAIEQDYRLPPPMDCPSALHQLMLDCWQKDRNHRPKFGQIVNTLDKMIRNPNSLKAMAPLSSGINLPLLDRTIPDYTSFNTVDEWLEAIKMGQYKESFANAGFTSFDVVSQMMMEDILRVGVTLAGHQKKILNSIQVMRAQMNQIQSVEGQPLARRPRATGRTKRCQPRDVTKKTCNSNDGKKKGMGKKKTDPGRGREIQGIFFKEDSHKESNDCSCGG
# Sequence of EPHB1 (P54762 whole entry, looked up): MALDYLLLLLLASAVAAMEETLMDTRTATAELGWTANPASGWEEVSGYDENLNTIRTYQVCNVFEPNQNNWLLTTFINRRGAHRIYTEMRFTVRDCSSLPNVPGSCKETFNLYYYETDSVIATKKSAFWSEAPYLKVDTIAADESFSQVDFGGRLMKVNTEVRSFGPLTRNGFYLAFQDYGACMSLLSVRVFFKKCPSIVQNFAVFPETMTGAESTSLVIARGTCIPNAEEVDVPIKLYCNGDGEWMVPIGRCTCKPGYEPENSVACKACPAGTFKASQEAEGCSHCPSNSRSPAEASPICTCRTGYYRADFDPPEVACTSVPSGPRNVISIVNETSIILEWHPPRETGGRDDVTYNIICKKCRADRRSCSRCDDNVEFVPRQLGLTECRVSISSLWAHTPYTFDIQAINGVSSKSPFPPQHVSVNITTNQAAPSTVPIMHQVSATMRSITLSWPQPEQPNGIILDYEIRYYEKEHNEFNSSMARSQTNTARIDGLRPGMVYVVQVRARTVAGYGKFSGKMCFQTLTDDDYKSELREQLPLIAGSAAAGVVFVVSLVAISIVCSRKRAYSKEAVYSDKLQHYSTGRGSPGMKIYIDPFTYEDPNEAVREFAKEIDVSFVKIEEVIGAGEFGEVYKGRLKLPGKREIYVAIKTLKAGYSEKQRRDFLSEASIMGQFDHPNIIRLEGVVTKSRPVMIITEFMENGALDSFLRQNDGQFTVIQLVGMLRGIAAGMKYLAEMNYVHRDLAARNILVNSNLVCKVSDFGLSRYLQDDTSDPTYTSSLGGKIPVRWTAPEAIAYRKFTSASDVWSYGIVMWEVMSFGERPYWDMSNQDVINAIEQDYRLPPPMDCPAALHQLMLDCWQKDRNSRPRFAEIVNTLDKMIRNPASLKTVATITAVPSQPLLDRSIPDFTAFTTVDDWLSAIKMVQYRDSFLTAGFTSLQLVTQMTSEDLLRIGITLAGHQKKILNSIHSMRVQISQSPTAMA
# Sequence of Fyn (P06241 whole entry, looked up): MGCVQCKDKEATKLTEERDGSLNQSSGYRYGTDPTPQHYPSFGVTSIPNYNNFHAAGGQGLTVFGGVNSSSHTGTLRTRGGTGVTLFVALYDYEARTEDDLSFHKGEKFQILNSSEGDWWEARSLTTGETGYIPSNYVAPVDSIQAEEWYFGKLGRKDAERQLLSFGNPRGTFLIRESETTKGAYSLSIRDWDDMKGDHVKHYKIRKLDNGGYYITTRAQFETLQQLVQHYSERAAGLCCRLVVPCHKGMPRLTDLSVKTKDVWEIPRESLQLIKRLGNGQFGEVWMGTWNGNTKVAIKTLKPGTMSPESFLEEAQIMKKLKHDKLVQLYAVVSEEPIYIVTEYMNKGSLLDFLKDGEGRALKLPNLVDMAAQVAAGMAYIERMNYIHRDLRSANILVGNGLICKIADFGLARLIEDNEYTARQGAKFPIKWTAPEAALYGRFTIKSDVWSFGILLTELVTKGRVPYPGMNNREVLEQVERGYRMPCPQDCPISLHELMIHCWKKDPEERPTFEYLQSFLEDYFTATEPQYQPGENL
Sequence,SH2 binding enrichment (Grb2 SH2),SH2 binding enrichment (SHP2-C SH2),SH2 binding enrichment (c-Src SH2),phosphorylation enrichment (FGFR3),phosphorylation enrichment (Fes),phosphorylation enrichment (c-Src),phosphorylation enrichment (FGFR1),phosphorylation enrichment (EPHB1),phosphorylation enrichment (Jak2),phosphorylation enrichment (Fyn),phosphorylation enrichment (MERTK),phosphorylation enrichment (Hck),phosphorylation enrichment (c-Abl (mouse)),phosphorylation enrichment (AncSZ),phosphorylation enrichment (EPHB2),phosphorylation enrichment (Fer (mouse))
RETLTYAQAQR [BRD1_Y33],0.904,0.819,0.753,0.525,0.737,0.623,0.541,0.383,0.694,0.584,0.529,0.746,0.963,0.702,0.478,0.42
HSGIFYKPESL [L2HGDH_Y103_YF],0.641,0.831,0.507,0.934,1.82,1.45,1.11,0.793,2.08,0.642,0.934,0.704,3.79,1.34,1.11,1.05
KANEYYPVVII [ADAMTS18_Y765_L769I],0.721,0.458,0.383,10.8,0.978,0.704,12.8,1.65,3.18,0.613,0.81,0.738,2.4,2.63,2.08,1.45
REESTYLPLTS [ICAM3_Y527],0.961,0.811,0.787,1.51,1.75,2.39,1.19,0.88,1.41,1.35,0.803,3.17,0.674,1.62,0.894,1
LQLLGDRPVFS [CHST6_Y358_Y358D_YF],0.749,0.762,0.532,0.542,0.795,0.377,0.448,0.521,0.633,0.356,0.388,0.41,0.673,0.628,0.487,0.378
CQASLYPSNHD [LRIG1_Y996_G993A],0.781,0.694,0.475,0.792,1.3,0.449,0.577,0.721,1.01,0.571,0.42,0.595,0.798,1.08,0.624,0.524
SVFNNYIQTLG [CTNND1_Y174_S171F],1.05,0.917,0.739,0.528,0.678,0.402,0.585,0.835,0.775,0.442,0.411,0.463,0.557,0.705,0.418,0.391
DGLALYTGSAL [COL6A3_Y524_S521L],0.695,0.46,0.36,0.723,1.17,0.635,0.479,0.968,0.901,0.614,0.55,0.901,0.749,1.09,0.936,0.758
LFDPDYMKVIL [CYP4A22_Y104_YF],0.775,0.564,0.392,1.44,4.91,0.675,1.5,1.42,1.23,0.675,0.502,0.759,0.958,1.76,1.43,1.2
IFLADYRIMEG [ALOX12B_Y318_YF],1.16,1.12,0.987,0.787,0.984,0.528,0.814,0.454,0.782,0.408,0.478,0.421,0.641,0.689,0.523,0.453
GGGMFYPLDLF,1.07,0.749,0.532,0.693,1.1,0.388,0.405,0.503,0.891,0.453,0.372,0.499,0.627,0.942,0.454,0.405
QEGPEYWDQNT [HLA-A_Y83_E87N],0.834,0.702,0.419,1.14,1.42,0.546,0.711,0.898,1.36,0.6,0.625,0.632,1.25,1.5,0.719,0.802
FPRAWYRRSIA [KIAA1109_Y4272],0.801,0.339,0.462,0.381,0.55,0.477,0.394,0.394,0.689,0.405,0.473,0.413,0.552,0.693,0.468,0.473
WKEREYEVVRD [CPS1_Y634_I632R],0.954,0.67,6.04,0.684,1.12,0.506,0.554,1.36,0.949,0.599,0.478,0.586,0.594,1.26,2.29,0.573
LDAFIYNAAVL [GRIN2A_Y730_D731N],0.927,0.761,0.5,1.62,2.08,2.32,2.36,1.3,0.874,4.57,0.704,4.05,0.972,1.72,1.57,1.95
KDKLPYPFDDP [GPX2_Y125_YF],0.815,0.854,0.454,0.638,1.01,0.486,0.567,0.457,0.821,0.556,0.512,0.498,0.581,1.04,0.792,0.533
ENPAKYDDIKK [GAPDH_Y255_K251N],0.702,0.888,1.39,0.69,1.04,0.485,0.519,0.608,0.829,0.506,0.437,0.412,0.579,0.915,0.582,0.453

# Further lines, with some results ahead:
SH2 binding enrichment (Grb2 SH2),SH2 binding enrichment (SHP2-C SH2),SH2 binding enrichment (c-Src SH2),Sequence,phosphorylation enrichment (FGFR3),phosphorylation enrichment (Fes),phosphorylation enrichment (c-Src),phosphorylation enrichment (FGFR1),phosphorylation enrichment (EPHB1),phosphorylation enrichment (Jak2),phosphorylation enrichment (Fyn),phosphorylation enrichment (MERTK),phosphorylation enrichment (Hck),phosphorylation enrichment (c-Abl (mouse)),phosphorylation enrichment (AncSZ),phosphorylation enrichment (EPHB2),phosphorylation enrichment (Fer (mouse))
0.8,0.626,0.352,EYGSGYPNDPK [RNASEH2A_Y210_D205E],0.474,0.794,0.386,0.433,0.369,0.672,0.446,0.425,0.593,0.574,0.697,0.458,0.505
0.885,0.943,0.848,PTDGVYVMPTV [MYO7A_Y1668_S1666G],2.52,1.21,7.86,2.95,2.01,1.3,14,11.7,6.35,4.76,6.14,1.48,0.789
0.862,1.03,0.865,MGSFNYLGFPR [SPTLC2_Y178_A182P_YF],0.534,0.983,0.615,0.566,1.88,1.68,0.44,0.518,0.403,0.584,0.795,0.917,0.418
1.18,5.52,0.991,RESSGYLRLAF [MEP1A_Y481],1.25,1.8,1.11,0.593,1.08,2.85,0.732,1.07,0.872,1.23,1.46,1.21,0.93
0.792,0.594,0.44,SSDKVYAHQMV [MLH1_Y379],0.416,0.573,0.514,0.379,0.404,0.431,0.538,0.476,0.458,0.537,0.551,0.401,0.494
0.98,0.773,0.528,LNERHYGGLTD [PGAM2_Y92_G97D],1.12,0.663,0.515,0.977,1.1,0.457,0.975,0.629,1.08,0.605,1.18,0.83,0.7
0.826,0.781,0.936,SVVVPYEPPGV [TP53_Y220_E224G],0.56,0.769,0.407,0.469,0.525,0.55,0.544,0.485,0.471,0.494,0.883,0.53,0.498
0.708,0.861,0.448,LESTLYESSVV [TRPV4_Y91],1.47,2.34,1.83,1.31,1.41,2.15,1.26,1.21,1.6,1.45,1.94,1.35,9.02
0.69,0.631,0.545,RDSQLYAVDYE [MRPS34_Y34],1.38,2.77,1.63,1.08,0.904,2.07,1.33,2.12,1.41,0.966,2.1,1.05,0.871
0.841,0.488,0.499,WPLKWYVPECI [ZAP70_Y506_A507V],0.804,1.18,0.387,0.496,0.688,1.02,0.428,0.382,0.572,0.757,1.06,0.618,0.44
0.911,0.606,0.54,KGSEGYLAAIY [NF1_Y2503_T2507I],0.552,0.912,0.898,0.572,0.525,0.673,0.8,0.485,1.09,0.563,0.78,0.561,0.493
0.715,0.679,0.52,VSSSDYFSFVL [USP24_Y2138_Y2134S],10.5,1.66,7.49,12.3,4.7,8.84,5.34,4.39,2.49,4.78,3.42,3.25,1.1
1.04,0.787,0.644,KKYPDYIQIAM [SGMS2_Y59],5.93,0.949,0.483,9.52,10,1.46,0.448,0.435,0.581,0.729,1.45,1.69,0.52
0.782,1.12,1.41,RLDRSYSYSYS [PEAR1_Y890],0.42,0.597,0.42,0.594,0.443,0.374,0.334,0.569,0.5,0.359,0.655,0.434,0.467
0.838,0.617,0.429,QHNPEYVQQAT [LRRC7_Y1058_S1063T],0.553,0.799,0.284,0.505,0.425,0.985,0.422,0.238,0.491,0.517,0.612,0.455,0.461
0.899,6.79,9.6,RPSRQYATLDV [SCAMP3_Y35],0.336,0.461,0.319,0.37,0.331,0.42,0.315,0.379,0.376,0.381,0.373,0.33,0.313
